Reference: paper PMC8102066 (2021)

B1: HA-SNAP-mGluR2 [modified: SNAP tag labelled with BG-LD555 (BG-LD655 in two-colour SiMPull); SNAP tag labelled with BG-LD555 (BG-LD655 in two-colour SiMPull)] [rat] / itself (parent complex)
chain: EGPAKKVLTLEGDLVLGGLFPVHQKGGPAEECGPVNEHRGIQRLEAMLFALDRINRDPHLLPGVRLGAHILDSCSKDTHALEQALDFVRASLSRGADGSRHICPDGSYATHSDAPTAVTGVIGGSYSDVSIQVANLLRLFQIPQISYASTSAKLSDKSRYDYFARTVPPDFFQAKAMAEILRFFNWTYVSTVASEGDYGETGIEAFELEARARNICVATSEKVGRAMSRAAFEGVVRALLQKPSARVAVLFTRSEDARELLAATQRLNASFTWVASDGWGALESVVAGSERAAEGAITIELASYPISDFASYFQSLDPWNNSRNPWFREFWEERFHCSFRQRDCAAHSLRAVPFEQESKIMFVVNAVYAMAHALHNMHRALCPNTTHLCDAMRPVNGRRLYKDFVLNVKFDAPFRPADTDDEVRFDRFGDGIGRYNIFTYLRAGSGRYRYQKVGYWAEGLTLDTSFIPWASPSAGPLPASRCSEPCLQNEVKSVQPGEVCCWLCIPCQPYEYRLDEFTCADCGLGYWPNASLTGCFELPQEYIRWGDAWAVGPVTIACLGALATLFVLGVFVRHNATPVVKASGRELCYILLGGVFLCYCMTFVFIAKPSTAVCTLRRLGLGTAFSVCYSALLTKTNRIARIFGGAREGAQRPRFISPASQVAICLALISGQLLIVAAWLVVEAPGTGKETAPERREVVTLRCNHRDASMLGSLAYNVLLIALCTLYAFKTRKCPENFNEAKFIGFTMYTTCIIWLAFLPIFYVTSSDYRVQTTTMCVSVSLSGSVVLGCLFAPKLHIILFQPQKNVVSHRAPTSRFGSAAPRASANLGQGSGSQFVPTVCNGREVVDSTTSSL
B2: HA-SNAP-mGluR3-C127A [modified: SNAP tag labelled with BG-LD555 (BG-LD655 in two-colour SiMPull); SNAP tag labelled with BG-LD555 (BG-LD655 in two-colour SiMPull)] [rat] / itself (parent complex)
chain: LGDHNFMRREIKIEGDLVLGGLFPINEKGTGTEECGRINEDRGIQRLEAMLFAIDEINKDNYLLPGVKLGVHILDTCSRDTYALEQSLEFVRASLTKVDEAEYMAPDGSYAIQENIPLLIAGVIGGSYSSVSIQVANLLRLFQIPQISYASTSAKLSDKSRYDYFARTVPPDFYQAKAMAEILRFFNWTYVSTVASEGDYGETGIEAFEQEARLRNICIATAEKVGRSNIRKSYDSVIRELLQKPNARVVVLFMRSDDSRELIAAANRVNASFTWVASDGWGAQESIVKGSEHVAYGAITLELASHPVRQFDRYFQSLNPYNNHRNPWFRDFWEQKFQCSLQNKRNHRQVCDKHLAIDSSNYEQESKIMFVVNAVYAMAHALHKMQRTLCPNTTKLCDAMKILDGKKLYKEYLLKINFTAPFNPNKGADSIVKFDTFGDGMGRYNVFNLQQTGGKYSYLKVGHWAETLSLDVDSIHWSRNSVPTSQCSDPCAPNEMKNMQPGDVCCWICIPCEPYEYLVDEFTCMDCGPGQWPTADLSGCYNLPEDYIKWEDAWAIGPVTIACLGFLCTCIVITVFIKHNNTPLVKASGRELCYILLFGVSLSYCMTFFFIAKPSPVICALRRLGLGTSFAICYSALLTKTNCIARIFDGVKNGAQRPKFISPSSQVFICLGLILVQIVMVSVWLILETPGTRRYTLPEKRETVILKCNVKDSSMLISLTYDVVLVILCTVYAFKTRKCPENFNEAKFIGFTMYTTCIIWLAFLPIFYVTSSDYRVQTTTMCISVSLSGFVVLGCLFAPKVHIVLFQPQKNVVTHRLHLNRFSVSGTATTYSQSSASTYVPTVCNGREVLDSTTSSL

Variants of: B1
Assay: SiMPull; shaded bar, data repeated from Figure 1F; read off a plot

Row | Variant | screen value [%]
1 | chain 1 C103A | ~91

Variants of: B2
Assay: SiMPull; SNAP-tagged constructs labeled with LD555; 6 movies; read off a plot

Row | Variant | screen value [%]
2 | chain 1 S664A, chain 1 F668A, chain 1 G672A | ~74
